Legend:
[1] = target: T1, GST–human PPARγ (full-length PPARγ–GST fusion protein) (human, UniProt P37231 1-505); experiment: pull-down
T1 sequence (looked up): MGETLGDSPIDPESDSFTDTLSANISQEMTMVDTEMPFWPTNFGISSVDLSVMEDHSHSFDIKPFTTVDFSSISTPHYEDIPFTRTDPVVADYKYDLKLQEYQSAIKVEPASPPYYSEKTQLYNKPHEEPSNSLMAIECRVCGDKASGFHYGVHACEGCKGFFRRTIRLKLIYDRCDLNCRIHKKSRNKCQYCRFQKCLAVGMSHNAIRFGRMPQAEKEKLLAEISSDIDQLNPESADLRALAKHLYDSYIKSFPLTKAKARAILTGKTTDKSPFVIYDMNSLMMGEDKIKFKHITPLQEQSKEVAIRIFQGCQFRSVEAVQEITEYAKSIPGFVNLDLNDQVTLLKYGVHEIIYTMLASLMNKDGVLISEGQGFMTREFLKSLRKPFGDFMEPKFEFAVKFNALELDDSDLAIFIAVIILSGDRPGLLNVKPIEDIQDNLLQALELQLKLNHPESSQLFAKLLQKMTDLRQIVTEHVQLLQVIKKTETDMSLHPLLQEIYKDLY

[2] = target: T1, GST–human PPARγ (full-length PPARγ–GST …); experiment: pull-down; remark: listed apart in the source

B1: SRC-1-S2, a truncated SRC-1 (steroid receptor co-activator-1) protein (amino acids 623–770) (domain or fragment, human, UniProt Q15788 623-770, looked up)
chain: DSKYSQTSHKLVQLLTTTAEQQLRHADIDTSCKDVLSCTGTSNSASANSSGGSCPSSHSSLTERHKILHRLLQEGSPSDITTLSVEPDKKDSASTSVSVTGQVQGNSSIKLELDASKKKESKDHQLLRYLLDKDEKDLRSTPNLSLDD
[1]
  fold binding relative to the vehicle control, with 50 μM Pio: 17 fold
[2]
  fold binding relative to the vehicle control, with 50 μM FPP: 6.1 fold
  fold binding relative to the vehicle control, with 100 μM FPP: 15 fold

— PMC3253524 (Biochemical Journal, 2011)
